Test results published in US20260176319A1 (KALLYOPE, published 2026).
Starred links: 1 amine or outer side, 2 acyl side, 3 side chain; linkers in the order of their positions; H or OH if unused. Non-standard residues stand in square brackets, D forms with d. *: point of attachment. C18 diacid = O=C(O)CCCCCCCCCCCCCCCCC(=O)*; γGlu = O=C(O)[C@H](CCC(=O)[*:2])N[*:1]; Nle = CCCC[C@H](N)C(=O)O; AEEA = NCCOCCOCC(=O)O

Biological target: human GRP receptor (human, UniProt P30550 1-384)
Experiment: cell-based or functional assay

human GRP receptor, sequence (P30550 whole entry): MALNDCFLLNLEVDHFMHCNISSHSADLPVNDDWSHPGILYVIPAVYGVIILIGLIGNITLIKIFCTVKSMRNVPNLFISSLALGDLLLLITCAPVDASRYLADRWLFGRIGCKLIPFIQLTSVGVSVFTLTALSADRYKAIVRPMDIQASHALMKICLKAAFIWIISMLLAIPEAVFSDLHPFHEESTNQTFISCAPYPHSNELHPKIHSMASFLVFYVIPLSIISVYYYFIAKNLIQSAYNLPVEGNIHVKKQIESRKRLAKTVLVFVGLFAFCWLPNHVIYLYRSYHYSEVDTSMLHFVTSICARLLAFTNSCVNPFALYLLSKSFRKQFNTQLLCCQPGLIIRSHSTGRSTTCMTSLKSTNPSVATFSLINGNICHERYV

hIP1 GRPR EC50: 8.02 nM
B1: Peptide 118 (peptide)
peptide: {C18 diacid}-[γGlu][AEEA][AEEA][AEEA][AEEA]GRHWAV[dA]HL[Nle]-NH2
SMILES: CCCC[C@H](NC(=O)[C@H](CC(C)C)NC(=O)[C@H](Cc1c[nH]cn1)NC(=O)[C@@H](C)NC(=O)[C@@H](NC(=O)[C@H](C)NC(=O)[C@H](Cc1c[nH]c2ccccc12)NC(=O)[C@H](Cc1c[nH]cn1)NC(=O)[C@H](CCCNC(=N)N)NC(=O)CNC(=O)COCCOCCNC(=O)COCCOCCNC(=O)COCCOCCNC(=O)COCCOCCNC(=O)CC[C@H](NC(=O)CCCCCCCCCCCCCCCCC(=O)O)C(=O)O)C(C)C)C(N)=O
